Assay results from patent publication US20240415919A1, “COMPOSITIONS AND METHODS FOR TREATMENT OF AUTOIMMUNE DISORDERS AND CANCER” (Dana-Farber Cancer Institute, Inc., priority 2021, published 2024).
Residue numbers refer to the chain shown, from its start.

Assays:
[1] = target: Ly49F (mouse) (UniProt Q60653); assay: cell-based or functional assay
[2] = tested on: Balb/C heart allografts; assay: Balb/C heart transplantation into skin-sensitized B6 hosts after peptide vaccination; settings: immunized hosts, FIG. 11B
[3] = tested on: FL9.2 T cells; assay: FL9 peptide immunization of hosts adoptively transferred with FL9.2 T cells; assay type: in vivo, mouse
Method: CD45.1+B6 hosts were adoptively transferred with FL9.2 T cells and immunized i.p. with FL9 in CFA or no peptide (CFA alone) on day 0. Three days later, activation (CD69) proliferation of FL9.2 T cells (Ki67) was measured.
(§1) CD45.1^+ B6 or TCRα^−/− mice were transferred with CFSE labelled 2×10^6 FL9.2 Tg T cells followed by i.p. immunization with 100 μg FL9 or FL9-68 peptides in CFA. Proliferation and activation of FL9.2 Tg T cells in the adoptive hosts were analzyed by assessing CFSE dilution, Ki67 and CD69 expression at day 3 and 6 after transfer.
as §1, with “CD45.1^+B6” for “CD45.1^+ B6”

[4] = target: T1, FL9-68, synthetic superagonist variant of the FL9 self-peptide (P to L at position 7) peptide on Qa-1b (mouse); assay: activation reporter or marker
T1 peptide: FYAEATLML

[5] = target: T2, FL9 self-peptide (source protein not named) peptide on Qa-1b (mouse); assay: multimer staining
T2 peptide: FYAEATPML

[6] = target: T2, FL9 self-peptide (source protein not …); assay: Kd or kinetics
[7] = target: T3, Hsp60 (Hsp60p216) peptide on Qa-1b (mouse); assay: multimer staining
T3 peptide: GMKFDRGYI

Chain of Ly49F (mouse) (Q60653 whole entry): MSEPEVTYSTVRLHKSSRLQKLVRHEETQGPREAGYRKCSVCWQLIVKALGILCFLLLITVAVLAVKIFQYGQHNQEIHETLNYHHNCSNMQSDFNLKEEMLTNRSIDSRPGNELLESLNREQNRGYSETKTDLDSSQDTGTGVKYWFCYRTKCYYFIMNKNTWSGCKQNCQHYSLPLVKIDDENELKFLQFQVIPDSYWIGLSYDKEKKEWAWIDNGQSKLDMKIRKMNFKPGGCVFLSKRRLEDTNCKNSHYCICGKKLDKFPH

In the case of “Chimeric anti-Ly49F Ab (HBF-719 with mIgG2a Fc) (antibody)”, the depletion of Ly49F+ CD8 Treg in spleen, lymphocytes and blood [1] is reported as > 95%.

For “FYAEATPML [FL9, Qa-1-associated self-peptide, reference compound]”, the “expansion of FL9-Qa-1 tetramer binding CD8 Treg (CD44+CD122+Ly49+CD8+T)” value [2] was 8 fold, the “in vivo activation/proliferation of transferred FL9 TCR+ CD8 T cells” value ([3]; i.p. immunization with peptide in CFA, CD45.1+ B6 or TCRα-/- hosts) was “no in vivo stimulation of FL9.2 T cells” and the “expansion of CD8 Treg after immunization” value ([3]; immunization of mice with the self-peptide) was “did not elicit detectable expansion of CD8 Treg”.

B1: FL9.2 TCR (TCR, V domains shown)
Valpha: AQSVTQPDARVTVSEGASLQLRCKYSYFGTPYLFWYVQYPRQGLQLLLKYYPGDPVVQGVNGFEAEFSKSNSSFHLRKASVHWSDWAVYFCAVRANTGKLTFGDGTVLTVKP
Vbeta: DSGVVQSPRHIIKEKGGRSVLTCIPISGHSNVVWYQQTLGKELKFLIQHYEKVERDKGFLPSRFSVQQFDDYHSEMNMSALELEDSAMYFCASSPRLASAETLYFGSGTRLTVL
B1: recognises [4].

B2: FL9.30 (TCR, V domains shown)
Valpha: AQSVTQPDARVTVSEGASLQLRCKYSYFGTPYLFWYVQYPRQGLQLLLKYYPGDPVVQGVNGFEAEFSKSNSSFHLRKASVHWSDWAVYFCAVSSNNAGAKLTFGGGTRLTVRP
Vbeta: B1 Vbeta with P95R, L97P
B2: recognises [5].

B3: FL9.5 (TCR, V domains shown)
Valpha: B1 Valpha with R94K, A95G, N96G, T97N, G98Y, L100P, D104K, V107S, T109V, K111H
Vbeta: NSGVVQSPRYIIKGKGERSILKCIPISGHLSVAWYQQTQGQELKFFIQHYDKMERDKGNLPSRFSVQQFDDYHSEMNMSALELEDSAVYFCASSLTGAYEQYFGPGTRLTVL
B3: recognises [5].

B4: FL9.43 (TCR, V domains shown)
Valpha: B1 Valpha with R94K, A95S, N96T, T97G, G98S, T101S, D104K, T106A, V107K, K111S
Vbeta: NSGVVQSPRYIIKGKGERSILKCIPISGHLSVAWYQQTQGQELKFFIQHYDKMERDKGNLPSRFSVQQFDDYHSEMNMSALELEDSAVYFCASSPRLGSAETLYFGSGTRLTVL
B4: recognises [5].

B5: FL9.31 (TCR, V domains shown)
Valpha: AQSVTQPDARVTVSEGASLQLRCKYSYFGTPYLFWYVQYPRQGLQLLLKYYPGDPVVQGVNGFEAEFSKSNSSFHLRKASVHWSDWAVYFCAVKDSGYNKLTFGKGTVLLVSP
Vbeta: NSGVVQSPRYIIKGKGERSILKCIPISGHLSVAWYQQTQGQELKFFIQHYDKMERDKGNLPSRFSVQQFDDYHSEMNMSALELEDSAVYFCASSLAGREQYFGPGTRLTVL
B5: recognises [5].

B6: FL9.8 TCR (TCR, V domains shown)
Valpha: AQSVTQPDARVTVSEGASLQLRCKYSYFGTPYLFWYVQYPRQGLQLLLKYYPGDPVVQGVNGFEAEFSKSNSSFHLRKASVHWSDWAVYFCAVRANYAQGLTFGLGTRVSVFP
Vbeta: NSGVVQSPRYIIKGKGERSILKCIPISGHLSVAWYQQTQGQELKFFIQHYDKMERDKGNLPSRFSVQQFDDYHSEMNMSALELEDSAVYFCASSLLGGPSAETLYFGSGTRLTVL
B6: recognises [4]; recognises [6]; no recognition [7].

B7: FL9.34 (TCR, V domains shown)
Valpha: B6 Valpha with A95G, N96Q, Y97G, A98G, Q99R, G100A, T102I, L105T, R108T, F112S
Vbeta: NSGVVQSPRYIIKGKGERSILKCIPISGHLSVAWYQQTQGQELKFFIQHYDKMERDKGNLPSRFSVQQFDDYHSEMNMSALELEDSAVYFCASSPGPSQNTLYFGAGTRLSVL
B7: recognises [5].

B8: FL9.26 (TCR, V domains shown)
Valpha: AQSVTQPDARVTVSEGASLQLRCKYSYFGTPYLFWYVQYPRQGLQLLLKYYPGDPVVQGVNGFEAEFSKSNSSFHLRKASVHWSDWAVYFCAVSTGGYKVVFGSGTRLLVSP
Vbeta: B4 Vbeta with P95H, L97S, G98F, A100G, E101N, S107E, T109S, T112I, L114V
B8: recognises [5].

B9: FL9.38 (TCR, V domains shown)
Valpha: QQKVQQSPESLSVPEGGMASLNCTSSDRNFQYFWWYRQHSGEGPKALMSIFSDGDKKEGRFTAHLNKASLHVSLHIRDSQPSDSALYFCALSESSGSWQLIFGSGTQLTVMP
Vbeta: EAAVTQSPRSKVAVTGGKVTLSCHQTNNHDYMYWYRQDTGHGLRLIHYSYVADSTEKGDIPDGYKASRPSQENFSLILELASLSQTAVYFCASRDRGDQNTLYFGAGTRLSVL
B9: no recognition [5].

B10: FL9.15 (TCR, V domains shown)
Valpha: GDSVTQTEGPVTVSESESLIINCTYSATSIAYPNLFWYVRYPGEGLQLLLKVITAGQKGSSRGFEATYNKETTSFHLQKASVQESDSAVYYCALGEASSGSWQLIFGSGTQLTVMP
Vbeta: DSGVVQSPRHIIKEKGGRSVLTCIPISGHSNVVWYQQTLGKELKFLIQHYEKVERDKGFLPSRFSVQQFDDYHSEMNMSALELEDSAMYFCASSLGQGNYAEQFFGPGTRLTVL
B10: no recognition [5].

B11: FL9.40 (TCR, V domains shown)
Valpha: AQSVTQPDARVTVSEGASLQLRCKYSYFGTPYLFWYVQYPRQGLQLLLKYYPGDPVVQGVNGFEAEFSKSNSSFHLRKASVHWSDWAVYFCAVTRYGSSGNKLIFGIGTLLSVKP
Vbeta: B1 Vbeta with A98G
B11: recognises [5].

B12: FL9.35 (TCR, V domains shown)
Valpha: B8 Valpha with T95M, G96M, V100L, V101T, S104T, R107S, S111D
Vbeta: B1 Vbeta with P95R, R96T, L97G, A98G
B12: recognises [5].

B13: FL9.41 (TCR, V domains shown)
Valpha: AQSVTQPDARVTVSEGASLQLRCKYSYFGTPYLFWYVQYPRQGLQLLLKYYPGDPVVQGVNGFEAEFSKSNSSFHLRKASVHWSDWAVYFCAVSIWATSSGQKLVFGQGTILKVYL
Vbeta: VTLLEQNPRWRLVPRGQAVNLRCILKNSQYPWMSWYQQDLQKQLQWLFTLRSPGDKEVKSLPGADYLATRVTDTELRLQVANMSQGRTLYCTCSARQGSGNTLYFGEGSRLIVV
B13: recognises [5].
